Consider 19 variants from the RNAGym collection of RNA variant scans (doi:10.1073/pnas.2313332121).

To fix the notation:
B1: TPR 5TU (parent)
chain: GGAUCUUCUCGAUCUAACAAAAAAGACAAAUCUGCCACAAAGCUUGAGAGCAUCUUCGGAUGCAGAGGCGGCAGCCUUCGGUGGCGCGAUAGCGCCAACGUUCUCAACUAUGACACGCAAAACGCGUGCUCCGUUGAAUGGAGUUUAUCAUG

Variants at the floor of the assay were thinned out. Where only a bound is given, the exact number is not on record here.

The variants in the series derive from B1. Briefly: polymerase ribozyme fitness, log enrichment relative to wild type (log ratio); higher = more active; in vitro selection for triplet polymerase activity. A digest of the protocol:
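A single round of triplicate in vitro selection, including frozen incubation at −7 °C, was applied to PCR-built, transcribed mutant libraries of each subunit of a heterodimeric triplet polymerase ribozyme. Illumina sequencing of input and output libraries retained genotypes with ≥10 input reads and ≥1 read per output. Fitness is the base-2 logarithm of genotype enrichment divided by wild-type enrichment, from inverse-variance-weighted replicate averages.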
As to GGAUCUUCUCGAUCUAACAAAAGAGACAUAUCUGCCACAAAGCUUGAGAGCAUCUUCGAAUGCAGAGGCGGCAGCCUUCGGUGGCGCGAUAGCACCAACGUUCUCAACUAUGACACGCAAAACGCGUGCUCCGUUGAAUGGAGUUUAUCAUG, the “polymerase ribozyme fitness (log ratio)” value was at most -4.2.

For GGACCUUCUCGAUCUAACAUAAAAGACAAAUCUGCCACAAAGCUUGAGAGCAUCUUCGGAUGCCGAGGCGGCAGCCUUCGGUGGGGCGAUAGCGCCAACGCUCUCAACUAUGACACGUAAAACGCGUGCUCCGUUGAAUGGAGUUUAUCAUG, the “polymerase ribozyme fitness (log ratio)” value is at most -4.2.

Regarding GGAUCUUCUCGAUCUAACAAAAAAGACAAAUCUGCCACAAAGCUUGAGAGCAUCUUCAGAUGCAGAGGCGGCAGCCUUCGGUAGCGCGAUAGCGCCAACGUUCUCAACUAUGACACGCAAAACGCGUGCUCCGUUGAAUGGAGUUUAUCAUG, the “polymerase ribozyme fitness (log ratio)” value is -0.976.

Take GGAUCUUCUCGAUCUAACAAAAAAGACAAAUCUGCCACAAGGCUUGAGAGCAUCUUCGGAUGGAGAGGCGGCAAUCUUCGGUGGCGCGAUAUCGCCAACGUUCUCAACUAUGACACGCAAAACGCGUGCUCCGUUGAAUGGAGCUUAUCAUG: the “polymerase ribozyme fitness (log ratio)” value is -3.87.

For the variant GGAUCUUCUCGAUCUAACAAAAACGACAGAUCUGCCACAAAGCUUUAGAGCAUCUUCGGAUGCAGAGGCGGCAGCCUUCGGUGGUGCGAUAGCGCCAACGUUCUCAACUAUGACACGCAAAACGCGUGGUACGUUGAAUGCAGUUUAUCAUG, the “polymerase ribozyme fitness (log ratio)” value is at most -4.2.

Consider GGAUCUUCUCGAUCUAACAAAAAAGAGAAACCUGCCACAAAGCUUGAGAGCAUCUUCGGAUCGAGAGGCGGCAGCCUUCGGUGGUGCGAUAGCGCCAACGUUCUCAACUAUGACACGCAAAACGCGUGCUCCGUUGAAUGGUGUUUAUCAUG, for which the “polymerase ribozyme fitness (log ratio)” value is at most -4.2.

Turning to GGAUCUUCUCGAUCUAACAAAAAAGACAAAUCUGCCACAACGCUUGAGAGCAUCUUCGGAUGCAGAGGCGGCAGCCUUCGGUGGCGCGAUAGUGCCAACGUUCUCAACUAUGACACGCAAAACGCGUGCUCCGUUGAAUGGAGUUUAUCAUG, the “polymerase ribozyme fitness (log ratio)” value was -1.61.

GGAUCUUCUCGAUCUAACAAAUAAGACAAAUCUGCCACAAAGCUUGUGAGUAUCUUCGGAUGCAGAGGCGGCAGCCUUCGGUGGCGCGAUAGCGACAAUGUUCUCAACUAUGACACGCAAAACGCGUGCUCCGUUGAAUGGAGUUUAUCAUG: the “polymerase ribozyme fitness (log ratio)” value was -1.72.

Take GGAUCUUCUCGAUCUAACAAAAAAGACAAAUCUGCCACGAAGCUUGAGAGCAUCUUCGGAUGCAGAGGCGGCAGCCUUCGAUGGCGCGAUAGCGCGAACGUUCUCAACUAUGACACGCAAAACGCGUGCUCCGUUGAAUGGAGUUUAUCAUG: the “polymerase ribozyme fitness (log ratio)” value is -3.28.

For GGAUCUUCUCGAUCUAACAAAAAAGAGAAAUCUGCCACAAAGCUUGAGGGCCUCUUCGGAUGCAGAGGCGGCAGCCUUCGGGGGCGCGAUGGCGCCAACGUUCUCAACUAUGACACGCAAAACGCGUGCUCCGUUGAAUGGAGUUUAUCAUG, the “polymerase ribozyme fitness (log ratio)” value was at most -4.2.

Turning to GGAUCUUCUCGAUCUAACAAAAAAGACAAAUCUGUCACAAAGCUUGAGAGCGUCUACGGAUGCAGAGGCGGCAGCCUUCGGUGGCGCGAUAGCGCCAACGUUCUCAACGAUGACACGCUAAACGCGUGCUCCGUUGAAUGGAGUUUAUCAUG, the “polymerase ribozyme fitness (log ratio)” value was -3.89.

Regarding GGAUCUUCUCGAUCUAACAAAAAAGACAAAUCUGCCACAAAGCUUGAGAGCAUCUUCGGAUGCAGAGGCGGCAGCCUUCGGUGGCGCGAUAGCGCCAACGUUCUCAACUAUGACACGCAAAACGCGUGCUCCGUCGAAUGUAGUUUAUCAUG, the “polymerase ribozyme fitness (log ratio)” value was -1.69.

Regarding GGAUCUUCUCGAUCUAACAAACAAGACAAAUCUGCCACAAAGCUUGAGAGCAUCUUUGGAUGCAGAGGCGGCAGCCUUCGGUGGCGCGAUAGCGCCAACGUUCUCAACUAUGACACGCAAAACGCGUGCUCCGUUGAAUGGAGUUUAUCAUG, the “polymerase ribozyme fitness (log ratio)” value is -0.765.

For the variant GGAUCUUCUCGAUCUAACAAAAAAGACAAAUCUGACACAAAGCUUGAGAGCAUCUUCGGAUGCAGAGGCGGCAGCCUUCGGUGGCGCGAUAGCGCCAGCGUUCUCAACUAUGACACGCAAAACGCGUGCUCCGUUGAAUGGAGUUUAUCAUG, the “polymerase ribozyme fitness (log ratio)” value is -3.17.

As to GGAUCUUCUCGAUCUAACAAAAAAGACAAAUCUGCCACAAAGCUUGAGAGCAUCUUCGGAUGCAGAGGCGGCAGCCUUCGGUGGCGCGAUAGCGCCAACGUUCUCAACUAUGACACGCAAAACGCGUGCUCCAUUGAAUGGAGUUUAUCAUG, the “polymerase ribozyme fitness (log ratio)” value was -3.

GGAUCUUCUCGUACUAACAAAAAAGACAAAUCUGCCACAAAGCUUGAGAGCAUCUUCGGAUGCAGAGGCGGCAGCCUUCGGUGGCGCGAUGGAGCCAACGUACUCAACUAUGACACGCAAAACGCGUGCUCCGUUGAAUGGAGUUUAUCAUG: the “polymerase ribozyme fitness (log ratio)” value was at most -4.2.

Regarding GGAUCUUCUCGAUCUAACAAAAAAGACAAAUCUUCCACAAAGCUUGAGAGCAUCUUCGGAUGCAGAGGCGGCAGCCUUCGGUGACGCGAUAGCGUCAACGUUCUCAACUAUGAGACGCAAAACGCGUGCUCCGUUGAAUGGAGUUUAUCAUG, the “polymerase ribozyme fitness (log ratio)” value was -4.02.

As for GGAUCUUCUCGAUCUAACAAAAAAGACAAAUCUGCCACAAAGCUUGAGAGCAUCUUCGGAUGCAGAGGCGGCAGCCCUCGGUGGCGCGAUAGCGCCAACGUUCUCAACUAAGACACGCAAAACGCGUGCUACGUUGAAUGGAGUUUAUCAUG, the “polymerase ribozyme fitness (log ratio)” value was at most -4.2.

On to GGAUCUUCUCGAUCUAACACAAAAGACAAAUCUGCCAUAAAGCUUGAGAGCAUCUUCGGAUGCAGAGGCGGCAGCCUUCGGUGGCGCGAUAGCGUCAACGUUCUCAACUAUGACACGCAAACCGCGUGCUCCGCUGAAUGGAGUUUAUCAUG, for which the “polymerase ribozyme fitness (log ratio)” value was -1.35.
